# Results from the supplement of paper PMC5998384.
# Key:
# HeLa Kyoto [1] = assay: solubility change mitosis vs G1/S (difference of NP-40 vs SDS log2 ratios) (log2 ratio difference); higher = more soluble in mitosis
# HeLa Kyoto [2] = assay: thermal stability score vs G1/S (z-score of summed log2 fold changes over temperatures); higher = more thermally stable than in G1/S
# HeLa Kyoto [3] = assay: solubility in G1/S (NP-40 vs SDS abundance) (log2 ratio); higher = more soluble; conditions: cell cycle stage: G1/S
# HeLa Kyoto [4] = assay: melting temperature (median over replicates), in situ; higher = more thermally stable
# [5] = cell cycle stage: early G1 (4.5 h after nocodazole release)
# 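Wherever melting temperature (median over replicates), in situ is given: HeLa Kyoto cells synchronized by double thymidine or nocodazole block, proteins quantified by TMT10plex mass spectrometry, three independent biological replicates.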
# 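Wherever solubility change mitosis vs G1/S (difference of NP-40 vs SDS log2 ratios) is given: synchronized HeLa Kyoto cells (double thymidine block for G1/S, nocodazole release for mitosis), protein amounts in NP-40 versus SDS lysates quantified by mass spectrometry, three biological replicates.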
# 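Wherever solubility in G1/S (NP-40 vs SDS abundance) is given: HeLa Kyoto cells arrested at G1/S by double thymidine block, proteins quantified by TMT10plex mass spectrometry in mild NP-40 versus SDS extracts, three biological replicates.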
# 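Wherever thermal stability score vs G1/S (z-score of summed log2 fold changes over temperatures) is given: synchronized HeLa Kyoto cells, proteins quantified by TMT10plex mass spectrometry, three biological replicates, mitosis taken 0.5 h after nocodazole release, G1/S directly after double thymidine block.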
# Sequence of AGRN (chain, as listed by the source): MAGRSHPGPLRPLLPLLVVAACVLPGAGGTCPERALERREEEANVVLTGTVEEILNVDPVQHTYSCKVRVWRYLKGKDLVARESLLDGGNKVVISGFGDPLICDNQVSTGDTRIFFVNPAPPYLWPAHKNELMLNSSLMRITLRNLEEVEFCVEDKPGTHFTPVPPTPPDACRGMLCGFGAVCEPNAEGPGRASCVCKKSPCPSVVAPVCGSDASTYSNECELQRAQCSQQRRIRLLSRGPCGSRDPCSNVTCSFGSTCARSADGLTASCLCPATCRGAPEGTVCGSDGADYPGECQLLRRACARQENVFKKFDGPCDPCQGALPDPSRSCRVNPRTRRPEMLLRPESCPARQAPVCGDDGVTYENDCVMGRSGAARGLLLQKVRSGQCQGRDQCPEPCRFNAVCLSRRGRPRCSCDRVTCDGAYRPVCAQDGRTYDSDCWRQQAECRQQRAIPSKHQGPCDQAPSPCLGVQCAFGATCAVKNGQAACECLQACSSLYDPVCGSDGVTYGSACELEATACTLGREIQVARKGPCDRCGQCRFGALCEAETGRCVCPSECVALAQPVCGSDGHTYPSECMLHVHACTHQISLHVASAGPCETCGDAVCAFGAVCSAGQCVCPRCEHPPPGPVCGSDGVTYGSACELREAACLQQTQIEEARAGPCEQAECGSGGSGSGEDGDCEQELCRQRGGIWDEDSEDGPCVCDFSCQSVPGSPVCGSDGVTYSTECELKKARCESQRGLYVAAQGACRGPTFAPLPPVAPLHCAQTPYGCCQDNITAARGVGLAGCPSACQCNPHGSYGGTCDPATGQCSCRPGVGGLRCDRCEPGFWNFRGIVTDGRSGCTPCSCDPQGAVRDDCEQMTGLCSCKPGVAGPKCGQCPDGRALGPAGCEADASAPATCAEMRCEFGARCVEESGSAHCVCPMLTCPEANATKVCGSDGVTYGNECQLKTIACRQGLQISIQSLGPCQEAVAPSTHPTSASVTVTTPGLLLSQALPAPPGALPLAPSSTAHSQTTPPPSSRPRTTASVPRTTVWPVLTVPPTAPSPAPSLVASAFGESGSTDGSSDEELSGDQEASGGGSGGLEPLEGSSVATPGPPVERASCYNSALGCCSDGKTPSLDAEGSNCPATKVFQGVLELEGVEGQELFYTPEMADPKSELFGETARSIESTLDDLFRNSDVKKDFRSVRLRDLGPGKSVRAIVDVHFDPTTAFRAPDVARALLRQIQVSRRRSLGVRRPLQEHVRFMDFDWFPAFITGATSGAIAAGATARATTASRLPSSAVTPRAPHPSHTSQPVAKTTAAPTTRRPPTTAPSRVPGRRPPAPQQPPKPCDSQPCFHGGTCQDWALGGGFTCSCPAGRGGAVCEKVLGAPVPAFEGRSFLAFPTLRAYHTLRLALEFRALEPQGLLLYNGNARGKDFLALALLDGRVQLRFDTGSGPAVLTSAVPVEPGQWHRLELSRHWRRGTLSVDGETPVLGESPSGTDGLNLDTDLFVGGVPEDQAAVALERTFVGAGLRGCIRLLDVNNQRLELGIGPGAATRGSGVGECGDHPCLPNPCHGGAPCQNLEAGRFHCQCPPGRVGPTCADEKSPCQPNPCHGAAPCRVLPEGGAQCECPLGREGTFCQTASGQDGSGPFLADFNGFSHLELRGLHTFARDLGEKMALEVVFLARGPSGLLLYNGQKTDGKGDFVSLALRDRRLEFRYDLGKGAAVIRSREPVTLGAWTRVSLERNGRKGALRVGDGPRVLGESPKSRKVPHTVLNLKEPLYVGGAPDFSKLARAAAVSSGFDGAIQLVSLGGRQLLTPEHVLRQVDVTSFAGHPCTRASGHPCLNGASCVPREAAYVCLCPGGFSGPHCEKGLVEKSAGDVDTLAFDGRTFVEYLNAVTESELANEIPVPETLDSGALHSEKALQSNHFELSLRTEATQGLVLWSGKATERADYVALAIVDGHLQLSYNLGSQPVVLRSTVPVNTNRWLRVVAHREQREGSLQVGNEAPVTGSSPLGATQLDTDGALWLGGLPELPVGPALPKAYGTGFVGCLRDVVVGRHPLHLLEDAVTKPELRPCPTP
# Sequence of CLK3 (chain, as listed by the source): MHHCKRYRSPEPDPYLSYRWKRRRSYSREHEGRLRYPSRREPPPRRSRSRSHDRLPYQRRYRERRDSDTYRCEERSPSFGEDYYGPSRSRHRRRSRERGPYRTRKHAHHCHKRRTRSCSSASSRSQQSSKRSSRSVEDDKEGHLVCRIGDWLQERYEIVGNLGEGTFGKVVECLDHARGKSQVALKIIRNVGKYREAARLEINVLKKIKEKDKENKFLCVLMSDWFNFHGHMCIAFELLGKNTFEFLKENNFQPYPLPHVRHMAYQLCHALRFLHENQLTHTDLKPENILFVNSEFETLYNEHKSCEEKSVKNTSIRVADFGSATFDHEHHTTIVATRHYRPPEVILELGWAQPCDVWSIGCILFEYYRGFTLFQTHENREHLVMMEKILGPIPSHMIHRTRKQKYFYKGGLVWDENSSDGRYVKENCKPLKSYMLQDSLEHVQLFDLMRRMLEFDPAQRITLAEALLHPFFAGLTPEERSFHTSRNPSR
# Sequence of LMTK2 (chain, as listed by the source): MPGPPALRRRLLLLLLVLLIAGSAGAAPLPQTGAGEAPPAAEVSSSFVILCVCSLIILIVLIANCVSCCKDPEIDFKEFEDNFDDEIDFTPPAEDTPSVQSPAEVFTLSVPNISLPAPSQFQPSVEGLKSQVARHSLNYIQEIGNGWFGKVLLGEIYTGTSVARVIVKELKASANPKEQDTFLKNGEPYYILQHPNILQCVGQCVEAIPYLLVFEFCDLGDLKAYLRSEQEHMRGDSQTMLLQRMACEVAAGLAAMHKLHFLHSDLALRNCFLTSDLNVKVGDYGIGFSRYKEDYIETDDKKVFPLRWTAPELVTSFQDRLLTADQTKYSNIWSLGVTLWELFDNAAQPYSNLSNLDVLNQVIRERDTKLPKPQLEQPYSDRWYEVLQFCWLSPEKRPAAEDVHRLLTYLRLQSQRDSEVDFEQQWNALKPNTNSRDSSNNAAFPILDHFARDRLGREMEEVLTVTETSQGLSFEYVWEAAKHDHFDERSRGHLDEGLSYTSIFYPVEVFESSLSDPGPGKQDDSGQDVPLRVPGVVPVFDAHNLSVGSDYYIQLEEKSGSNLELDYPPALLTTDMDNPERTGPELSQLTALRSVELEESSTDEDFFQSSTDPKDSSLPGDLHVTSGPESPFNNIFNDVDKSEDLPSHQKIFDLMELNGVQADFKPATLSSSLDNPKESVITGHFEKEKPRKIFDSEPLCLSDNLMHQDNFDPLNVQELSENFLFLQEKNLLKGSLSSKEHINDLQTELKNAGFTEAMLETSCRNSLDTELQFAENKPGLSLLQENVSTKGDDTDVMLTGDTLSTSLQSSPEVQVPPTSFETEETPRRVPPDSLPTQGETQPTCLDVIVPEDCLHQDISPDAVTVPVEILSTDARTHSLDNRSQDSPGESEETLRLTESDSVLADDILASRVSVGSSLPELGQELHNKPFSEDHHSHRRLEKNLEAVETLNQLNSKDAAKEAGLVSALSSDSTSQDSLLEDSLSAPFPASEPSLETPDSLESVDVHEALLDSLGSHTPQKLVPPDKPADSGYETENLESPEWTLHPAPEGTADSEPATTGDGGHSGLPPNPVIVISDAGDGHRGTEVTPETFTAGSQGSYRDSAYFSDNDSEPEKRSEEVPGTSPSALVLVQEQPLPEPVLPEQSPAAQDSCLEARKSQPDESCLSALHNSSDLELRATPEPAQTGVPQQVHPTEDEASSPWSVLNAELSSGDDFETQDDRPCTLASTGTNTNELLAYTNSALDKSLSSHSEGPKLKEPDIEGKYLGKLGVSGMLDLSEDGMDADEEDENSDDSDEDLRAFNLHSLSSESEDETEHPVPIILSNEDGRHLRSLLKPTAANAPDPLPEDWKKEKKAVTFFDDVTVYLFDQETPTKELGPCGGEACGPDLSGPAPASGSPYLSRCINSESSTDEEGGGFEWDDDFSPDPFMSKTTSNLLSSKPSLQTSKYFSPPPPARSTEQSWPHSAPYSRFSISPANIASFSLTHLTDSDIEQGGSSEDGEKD
Substance,solubility change mitosis (log2) (HeLa Kyoto [1]),further results
ACTA1,-0.193,–
AGRN,-0.0384,thermal stability score (HeLa Kyoto [2]; [5]): 3.71; thermal stability score (HeLa Kyoto [2]; cell cycle stage: mitosis): 4.6
AJUBA,-0.0418,–
AK2,0.09,–
ALG12,-0.0892,solubility in G1/S (log2) (HeLa Kyoto [3]): -0.268
ARAP3,-0.158,solubility in G1/S (log2) (HeLa Kyoto [3]): 0.016
ARHGEF11,-0.0196,solubility in G1/S (log2) (HeLa Kyoto [3]): -0.0113
ATG2A,-0.036,solubility in G1/S (log2) (HeLa Kyoto [3]): -0.135
ATRN,-0.041,solubility in G1/S (log2) (HeLa Kyoto [3]): 0.238
BCKDK,-0.0559,–
BCORL1,0.348,solubility in G1/S (log2) (HeLa Kyoto [3]): -0.267
CBWD1,-0.0771,solubility in G1/S (log2) (HeLa Kyoto [3]): 0.26
CEP290,0.0705,solubility in G1/S (log2) (HeLa Kyoto [3]): 0.253
CHAF1B,0.105,–
CIC,-0.0541,solubility in G1/S (log2) (HeLa Kyoto [3]): -0.00578
CLK3,0.423,solubility in G1/S (log2) (HeLa Kyoto [3]): -1.26
CNOT11,-0.0916,–
COLGALT1,0.0451,–
DDX60,-0.0365,solubility in G1/S (log2) (HeLa Kyoto [3]): -0.517
DNMT3B,0.67,–
DOCK4,0.0146,solubility in G1/S (log2) (HeLa Kyoto [3]): -0.259
DPP7,0.00739,–
DPYSL2,-0.147,–

Substance,solubility change mitosis (log2) (HeLa Kyoto [1]),further results
DYRK1A,0.0078,–
EI24,-0.07,–
EMG1,0.19,–
ETF1,-0.146,–
FNTA,-0.132,–
GAA,-0.231,–
GADD45GIP1,0.258,–
GORASP2,-0.317,–
HPCAL1,-0.0209,–
HSPG2,-0.021,–
IFI30,0.347,–
LARP1,0.306,–
LMTK2,-0.217,solubility in G1/S (log2) (HeLa Kyoto [3]): -0.313
LRPPRC,-0.118,–
MAFIRKKQQEQQLQLYSKERFSLLLLNLEEYYFEQHRANHILHKGSHHERKIRGSLKICSKSVIFEPDSISQPIIKIPLRDCIKIGKHGENGANRHFTKAKSGGISLIFSQVYFIKEHNVVAPYKIERGKMEYVFELDVPGKVEDVVETLLQLHRASCLDKLGDQTAMITAILQSRLARTSFDKNRFQNISEKLHMECKAEMVTPLVTNPGHVCITDTNLYFQPLNGYPKPVVQITLQDVRRIYKRRHGLMPLGLEVFCTEDDLCSDIYLKFYEPQDRDDLYFYIATYLEHHVAEHTAESYMLQWQRGHLSNYQYLLHLNNLADRSCNDLSQYPVFPWIIHDYSSSELDLSNPGTFRDLSKPVGALNKERLERLLTRYQEMPEPKFMYGSHYSSPGYVLFYLVRIAPEYMLCLQNGRFDNADRMFNSIAETWKNCLDGATDFKELIPEFYGDDVSFLVNSLKLDLGKRQGGQMVDDVELPPWASSPEDFLQKSKDALESNYVSEHLHEWIDLIFGYKQKGSDAVGAHNVFHPLTYEGGVDLNSIQDPDEKVAMLTQILEFGQTPKQLFVTPHPRRITPKFKSLSQTSSYNASMADSPGEESFEDLTEESKTLAWNNITKLQLHEHYKIHKEAVTGITVSRNGSSVFTTSQDSTLKMFSKESKMLQRSISFSNMALSSCLLLPGDATVITSSWDNNVYFYSIAFGRRQDTLMGHDDAVSKICWHDNRLYSASWDSTVKVWSGVPAEMPGTKRHHFDLLAELEHDVSVDTISLNAASTLLVSGTKEGTVNIWDLTTATLMHQIPCHSGIVCDTAFSPDSRHVLSTGTDGCLNVIDVQTGMLISSMTSDEPQRCFVWDGNSVLSGSQSGELLVWDLLGAKISERIQGHTGAVTCIWMNEQCSSIITGGEDRQIIFWKLQY [NSMAF],-0.221,thermal stability score (HeLa Kyoto [2]; [5]): -0.603; thermal stability score (HeLa Kyoto [2]; cell cycle stage: mitosis): 0.514
MALSU1,-0.0468,–
MASDSGNQGTLCTLEFAVQMTCQSCVDAVRKSLQGVAGVQDVEVHLEDQMVLVHTTLPSQEVQALLEGTGRQAVLKGMGSGQLQNLGAAVAILGGPGTVQGVVRFLQLTPERCLIEGTIDGLEPGLHGLHVHQYGDLTNNCNSCGNHFNPDGASHGGPQDSDRHRGDLGNVRADADGRAIFRMEDEQLKVWDVIGRSLIIDEGEDDLGRGGHPLSKITGNSGERLACGIIARSAGLFQNPKQICSCDGLTIWEERGRPIAGKGRKESAQPPAHL [CCS],0.0319,thermal stability score (HeLa Kyoto [2]; [5]): 0.914; thermal stability score (HeLa Kyoto [2]; cell cycle stage: mitosis): 0.694
MEAF6,0.685,–
MGLTISSLFSRLFGKKQMRILMVGLDAAGKTTILYKLKLGEIVTTIPTIGFNVETVEYKNICFTVWDVGGQDRIRPLWKHYFQNTQGLIFVVDSNDRERIQEVADELQKMLLVDELRDAVLLLFANKQDLPNAMAISEMTDKLGLQSLRNRTWYVQATCATQGTGLYEGLDWLSNELSKR [ARF4],-0.374,thermal stability score (HeLa Kyoto [2]; [5]): 4.99; thermal stability score (HeLa Kyoto [2]; cell cycle stage: mitosis): 6.18
MRPL3,-0.0054,–
MRPL4,-0.11,–
MRPL18,0.126,–
MRPL35,0.149,–

Substance,solubility change mitosis (log2) (HeLa Kyoto [1]),further results
MRPL40,0.188,–
MRPL46,0.212,–
MRPL47,0.0261,–
MRPL53,0.25,–
MRPS5,0.017,–
MRPS9,-0.0743,–
MRPS14,0.165,–
MRPS18B,0.111,–
MRPS25,0.166,–
MRPS30,-0.14,–
MWRWIRQQLGFDPPHQSDTRTIYVANRFPQNGLYTPQKFIDNRIISSKYTVWNFVPKNLFEQFRRVANFYFLIIFLVQLMIDTPTSPVTSGLPLFFVITVTAIKQGYEDWLRHNSDNEVNGAPVYVVRSGGLVKTRSKNIRVGDIVRIAKDEIFPADLVLLSSDRLDGSCHVTTASLDGETNLKTHVAVPETALLQTVANLDTLVAVIECQQPEADLYRFMGRMIITQQMEEIVRPLGPESLLLRGARLKNTKEIFGVAVYTGMETKMALNYKSKSQKRSAVEKSMNTFLIIYLVILISEAVISTILKYTWQAEEKWDEPWYNQKTEHQRNSSKILRFISDFLAFLVLYNFIIPISLYVTVEMQKFLGSFFIGWDLDLYHEESDQKAQVNTSDLNEELGQVEYVFTDKTGTLTENEMQFRECSINGMKYQEINGRLVPEGPTPDSSEGNLSYLSSLSHLNNLSHLTTSSSFRTSPENETELIKEHDLFFKAVSLCHTVQISNVQTDCTGDGPWQSNLAPSQLEYYASSPDEKALVEAAARIGIVFIGNSEETMEVKTLGKLERYKLLHILEFDSDRRRMSVIVQAPSGEKLLFAKGAESSILPKCIGGEIEKTRIHVDEFALKGLRTLCIAYRKFTSKEYEEIDKRIFEARTALQQREEKLAAVFQFIEKDLILLGATAVEDRLQDKVRETIEALRMAGIKVWVLTGDKHETAVSVSLSCGHFHRTMNILELINQKSDSECAEQLRQLARRITEDHVIQHGLVVDGTSLSLALREHEKLFMEVCRNCSAVLCCRMAPLQKAKVIRLIKISPEKPITLAVGDGANDVSMIQEAHVGIGIMGKEGRQAARNSDYAIARFKFLSKLLFVHGHFYYIRIATLVQYFFYKNVCFITPQFLYQFYCLFSQQTLYDSVYLTLYNICFTSLPILIYSLLEQHVDPHVLQNKPTLYRDISKNRLLSIKTFLYWTILGFSHAFIFFFGSYLLIGKDTSLLGNGQMFGNWTFGTLVFTVMVITVTVKMALETHFWTWINHLVTWGSIIFYFVFSLFYGGILWPFLGSQNMYFVFIQLLSSGSAWFAIILMVVTCLFLDIIKKVFDRHLHPTSTEKAQLTETNAGIKCLDSMCCFPEGEAACASVGRMLERVIGRCSPTHISRSWSASDPFYTNDRSILTLSTMDSSTC [ATP11B],–,melting temperature (HeLa Kyoto [4]; cell cycle stage: G1/S): 57.4 °C; melting temperature (HeLa Kyoto [4]; cell cycle stage: mitosis): 55.5 °C; thermal stability score (HeLa Kyoto [2]; [5]): -2.25; thermal stability score (HeLa Kyoto [2]; cell cycle stage: mitosis): -0.924
MYRTKVGLKDRQQLYKLIISQLLYDGYISIANGLINEIKPQSVCAPSEQLLHLIKLGMENDDTAVQYAIGRSDTVAPGTGIDLEFDADVQTMSPEASEYETCYVTSHKGPCRVATYSRDGQLIATGSADASIKILDTERMLAKSAMPIEVMMNETAQQNMENHPVIRTLYDHVDEVTCLAFHPTEQILASGSRDYTLKLFDYSKPSAKRAFKYIQEAEMLRSISFHPSGDFILVGTQHPTLRLYDINTFQCFVSCNPQDQHTDAICSVNYNSSANMYVTGSKDGCIKLWDGVSNRCITTFEKAHDGAEVCSAIFSKNSKYILSSGKDSVAKLWEISTGRTLVRYTGAGLSGRQVHRTQAVFNHTEDYVLLPDERTISLCCWDSRTAERRNLLSLGHNNIVRCIVHSPTNPGFMTCSDDFRARFWYRRSTTD [CSTF1],-0.043,thermal stability score (HeLa Kyoto [2]; [5]): -1.59; thermal stability score (HeLa Kyoto [2]; cell cycle stage: mitosis): -2.67
NCK1,-0.221,–
NCKIPSD,-0.148,–
NT5C3A,-0.0945,–
NUDT1,-0.22,–
POLB,-0.0195,–
POLR2B,0.175,–
POLR2E,0.311,–
PTCD3,-0.182,–
RAC1,-0.0656,–
RPL4,0.805,–
RPL13,0.759,–

Substance,solubility change mitosis (log2) (HeLa Kyoto [1]),further results
RPL23,0.476,–
RPL27,0.573,–
RPL29,1.68,–
RPL30,0.776,–
RPL32,0.91,–
RPL35A,0.707,–
RPL37,1.29,–
RPS3A,0.538,–
RPS4X,0.489,–
RPS5,0.452,–
RPS10,0.59,–
RPS21,0.45,–
S100A6,0.893,–
SARS,-0.0633,–
SLAIN2,-0.187,–
SNX27,-0.11,–
TACO1,0.0266,–
TMEM263,0.0364,–
TUFM,-0.0187,–
VPS35,-0.178,–
